Measurements reported in publication PMC8228455, “Redox Regulation of the Quorum-sensing Transcription Factor AgrA by Coenzyme A”.

Molecular target: T1, AgrA (6xHis-SaAgrA) (Staphylococcus aureus, UniProt Q5HEG2 1-238)
T1 sequence: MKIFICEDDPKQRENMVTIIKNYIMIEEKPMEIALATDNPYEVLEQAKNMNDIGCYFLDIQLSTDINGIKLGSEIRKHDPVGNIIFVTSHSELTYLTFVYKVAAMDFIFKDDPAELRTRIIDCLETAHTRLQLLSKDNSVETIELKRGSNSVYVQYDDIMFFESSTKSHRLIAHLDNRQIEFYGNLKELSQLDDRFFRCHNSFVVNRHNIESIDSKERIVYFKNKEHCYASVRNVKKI
Assay: SPR; non-CoAlated; ka 5.75e3 1/Ms, kd 1.01e-2 1/s; SPR (Biacore 2000, SA chip, ~500 RU DNA): 20 mM HEPES pH 7.6, 250 mM KCl, 10% glycerol; 30 uL/min; temperature not stated; 1:1 Langmuir fit
Settings: protein: recombinant; tags: 6xHis; chain copies: 2; label: 5' biotin (immobilized on SA chip); blunt

B1: P2 promoter (dsDNA)
DNA 1: TAACAGTTAAGTATTTATTTCCTACAGTTAGGCA
DNA 2: TGCCTAACTGTAGGAAATAAATACTTAACTGTTA
B1 gave a Kd of 1.75 ± 0.58 µM.
